The text below walks through data of PMC4351431, “Pharmacokinetics of diluted (U20) insulin aspart compared with standard (U100) in children aged 3–6 years with type 1 diabetes during closed-loop insulin delivery: a randomised clinical trial” (Diabetologia, 2014).

Where two headings read alike, the source gives them in different places.

Details of data set [1]: method as in PMID 23278690. As to conditions: pig, in vivo, sc; cited from earlier work.
For data set [2] the following is noted: cited from earlier work; for MCR I / ins c: published literature, closed-loop insulin delivery. An excerpt: Similar estimates of MCR I and ins c were also found in the current study and published literature (1.94 vs 1.68 × 10^−2 vs 1.90 × 10^−2 1/kg/min for MCR I, 29 vs 28 vs 61 pmol/l for ins c). In the present study, MCR I values in the two visits were highly correlated (r = 0.918, p < 0.001), as were the ins c values ...

Data set [3] in a line: Insulin aspart pharmacokinetics during closed-loop insulin delivery, two-compartment modelling of plasma insulin. Further details: species or system human. As to conditions: in vivo. As to the method: Children were admitted in the afternoon on two study visits, 2–6 weeks apart, at the Wellcome Trust Clinical Research Facility, Addenbrooke’s Hospital, Cambridge, to undergo closed-loop insulin delivery from 17:00 hours until 8:00 hours the following morning. On both occasions, the children consumed identical evening meals at 17:00 hours [44 ± 12 g carbohydrate] and optional bedtime snacks [6 ± 7 g carbohydrate]. Standard pump bolus calculators were used to calculate meal insulin boluses and basal rates on the insulin pump (Animas 2020, Johnson & Johnson, PA, USA) were adjusted every 15 min according to the output of a model predictive control algorithm informed by real-time continuous glucose monitoring values (Dexcom G4, Dexcom, CA, USA). Standard strength (100 U/ml) insulin aspart (Novo Nordisk, Bagsvaerd, Denmark) was infused at one visit and diluted aspart (0.9% saline [154 mmol/l NaCl] at 1:5 ratio, 20 U/ml) was administered at the other; the order of the two interventions was random. […]
Venous blood samples were taken at −30, 0, 30, 60, 90, 120, 180, 240, 300, 360, 420, 480, 540, 600, 660, 720, 780, 840 and 900 min relative to 17:00 hours for measuring the plasma insulin concentration. […] Plasma insulin was measured using an immunochemiluminometric assay (Invitron, Monmouth, UK; intra-assay CV 4.7%, interassay CV 7.2–8.1%; 100% cross reactivity with insulin aspart). Fasting C-peptide levels were measured at plasma glucose values above 6 mmol/l by ELISA (Mercodia, Uppsala, Sweden).
Aspart pharmacokinetics was assessed using a two-compartment model measuring the time-to-peak of plasma insulin concentration (t max), metabolic clearance rate of insulin (MCR I), and background plasma insulin concentration (ins c). […]
Differences between pharmacokinetic parameters were assessed by paired t test (for normally distributed variables) or the Wilcoxon signed-rank test (for non-normally distributed variables). […] The Spearman’s rank correlation evaluated correlations between pharmacokinetic and demographic indices. […]

Consider B28Asp human insulin [insulin aspart], for which the “effect of concentration on insulin aspart pharmacokinetics” value in data set [1] was “no significant difference between U200, U100 and U20”. Also, the t max in data set [2] (adults with type 1 diabetes, during closed-loop insulin delivery) is 51 min; in data set [2] (older children with type 1 diabetes, during closed-loop insulin delivery), 66 min; in data set [2] (type 1 diabetes, following insulin bolus injection) it was 49 min. Moreover, the “MCR I” value is 0.0168 kg⁻¹ min⁻¹ in data set [2] (ref 7) and 0.019 kg⁻¹ min⁻¹ in data set [2] (ref 8). The results for the ins c in data set [2] (ref 7) and in data set [2] (ref 8) were 28 pmol/L and 61 pmol/L, respectively. In data set [3] (human), the “mean value of t max in the present study” value is 60.4 min. The same substance registered an MCR I in the current study in data set [3] of 19.4 mL/min/kg. In data set [3], the “ins c in the current study” value was 29 pmol/L.
